According to patent US8674063 (CENTRO DE INGENIERIA GENETICA Y BIOTECNOLOGIA, dated 2014):

Molecular target: NS3pro protease of dengue virus 2 (strain S16803) (dengue virus 2 (strain S16803))
Assay: cell-based or functional assay

YGRKKRRQRRRPPQGGGSSPILSITISEDG [peptide NS2Bden2+TAT (peptide 1 of table 1)]
IC50 of inhibition of DV2 infection, plaque reduction neutralization assay in Vero cells: 50 to 60 µM
